# Results published in the supplement of paper PMC9732359.
# ± gives the uncertainty stated by the source.
# Assay: protein stability index of a GFP-peptide fusion (yeast GPS) (PSI 1-4); higher = more stable; sorted into four equal gates, so the index is relative within each strain
# Conditions: doa10∆
# Procedure, shortened: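 Plasmids in a pooled yeast library fused tiled 17-residue yeast protein peptides downstream of GFP and also expressed Cherry. Mid-log cultures grown without leucine were sorted into four equal gates by GFP/Cherry fluorescence ratio. Each gate's plasmids were PCR-amplified and Illumina-sequenced, and reads were matched to strains by barcodes. The protein stability index is derived by multiplying each gate's read frequency by its gate number and summing the results.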
row,Sequence,protein stability index
1,GILDEIMFNHARIIRSE [RGR1],2.75 ± 0.061
2,GILGNKAQAKMDKRAKT [RPL8B],3.58 ± 0.12
3,GINKIPPKPRKVLQLLR [RPL7A],3.06 ± 0.087
4,GIRWELISRLCPNSTGA [RPT1],2.04 ± 0.047
5,GIVDELAYAVLGIALIA [RPN1],1.76 ± 0.1
6,GIWNDLGSGSNVDVCVM [PUP1],2.69 ± 0.27
7,GKAATAKETHTKPSETP [YOR098C/NUP1],2.57 ± 0.098
8,GKASLFAQGKRRYDRKQ [RPL42A],3.28 ± 0.11
9,GKEHIVAALVSLTEKFS [ECM29],1.73 ± 0.047
10,GKGIKLSIAEERDRRRA [RPS4A],2.59 ± 0.12
11,GKHLSYQRSKRVNNPNV [RPL33A],2.32 ± 0.047
12,GKIEKIAQSKKKNNKIK [SRP21],3.11 ± 0.094
13,GKKKSATAVAHVKAGKG [RPS16A],2.86 ± 0.094
14,GKKVLNKNQLLKRNRIR [POP1],2.88 ± 0.068
15,GKPSFVFGASDKQAEGT [YOR098C/NUP1],3.33 ± 0.13
16,GKRQVLLRPSSKVIIKF [RPS22B],2.83 ± 0.1
17,GKTGLSNMILGSVELST [YML103C/NUP188],2.24 ± 0.056
18,GKTLAFVIPILIKMSRS [PRP28],1.38 ± 0.071
19,GKTYMGWWGHMGGPKQK [QCR8],1.88 ± 0.22
20,GKVRLWKATYSNEFKCM [YGL100W/SEH1],2 ± 0.041
21,GLAVGLALINYGRQELA [RPN2],1.3 ± 0.11
22,GLESLLNIGLGAVGLKD [YCS4],2.77 ± 0.1
23,GLHPFEVAQLGSLACDT [RPB4],1.9 ± 0.15
24,GLIPYPHHNQSPRNTYQ [RET1],2.58 ± 0.078
25,GLIYSFNEENGEDSTKP [POP1],3.25 ± 0.098

row,Sequence,protein stability index
1,GLMSANNIIAEGIEKMG [FAS2],1.68 ± 0.12
2,GLQNVRKVRTKKWKKYW [SWP82],3.6 ± 0.2
3,GLRNQNMVRNNNNNTID [GRR1],2.75 ± 0.063
4,GLSAREAVKQAAKIIYL [PRE10],2.86 ± 0.096
5,GLTSRLQRQQRKSKLNL [POP4],2.65 ± 0.12
6,GLVKQHLDSFNYFVDTD [RET1],3.46 ± 0.17
7,GNAKESKALLREISNFS [SRP72],2.97 ± 0.17
8,GNIDTKNNILGSNVLKS [RRP43],2.86 ± 0.039
9,GNISSSTVKKKDIVNIS [REC8],3.03 ± 0.063
10,GNKALEDEEEFSIFNYF [RPC34],3.21 ± 0.13
11,GNSEAIPGLSAGVNNDN [RTT102],3.21 ± 0.086
12,GNSFHLMRELLKMMKLI [PRP8],2.78 ± 0.051
13,GPENALNVYHYFGENSS [YJL039C/NUP192],2.05 ± 0.032
14,GPRAVLTRQPTEGRSRD [RET1],3.43 ± 0.091
15,GPSAMRLSRCIRDNKLV [RPC82],1.94 ± 0.14
16,GQLISLLFEDLFKKFNN [RET1],3.1 ± 0.17
17,GQVVLTPLTFALPRGAR [RPL14A],1.5 ± 0.074
18,GRFLRVPKEGLFYFDSS [BRR2],3.18 ± 0.11
19,GRIRTTREDVSPHYNSQ [SSN3],1.81 ± 0.067
20,GRNLGRIGTIVHKERHD [RPS4A],2.42 ± 0.13
21,GRRLSMLASQANGGSTI [DSN1],2.1 ± 0.057
22,GRTGNGNMGITTEMLDK [MED6],3.23 ± 0.069
23,GRVYRPLFIVEDDESLG [RPB2],1.71 ± 0.063
24,GSAATSGFEFSKEDTLR [RPN1],2.61 ± 0.15
25,GSAITGPVGKECADLWP [RPL23A],2.44 ± 0.11

row,Sequence,protein stability index
1,GSARTRWEMEAFGEFSL [FAS2],1.78 ± 0.072
2,GSGNNNEIESRQLTSLG [SNU114],3.4 ± 0.16
3,GSKSASKQTPQPKAPRA [ISW2],3.08 ± 0.076
4,GSLARAGKVKSQTPKVE [RPS30A],2.71 ± 0.06
5,GSNYNPYFPGGSIAMAR [CYT1],2.08 ± 0.082
6,GSPKSATSKTSEMLAKY [CDC53],2.67 ± 0.075
7,GSPQMLANEERLSNEMH [RGR1],2.9 ± 0.074
8,GSTTIEKKNDENSTSNS [YLR335W/NUP2],3.1 ± 0.085
9,GSVMSASVEIVFHDPDH [SMC3],2.12 ± 0.091
10,GSYNAFEPASRLQGIKL [COR1],2.95 ± 0.053
11,GTGKSQSGSNSGNNSKK [ROX3],3.37 ± 0.3
12,GTHNMYKEIRDVSRVAA [RPL20A],1.96 ± 0.089
13,GTKSNEKKDSGSSKPAF [YJL041W/NSP1],3.21 ± 0.063
14,GTNPLSSDGAYTEQFQH [SSN2],3.23 ± 0.093
15,GTPKTDSFIFDGTAKEV [MED4],2.32 ± 0.041
16,GTPPMLHQRTHKQVYPL [DSN1],2.52 ± 0.1
17,GVEEVEGEYELTEAVED [RPL5],3.36 ± 0.11
18,GVERLIPVGDNTVVGIS [PRE4],2.96 ± 0.089
19,GVEYRLRLRISRKRNEE [RPL31A],1.5 ± 0.12
20,GVILMFAAILVLLVLPF [COB],2.69 ± 0.062
21,GVRSNHLRSNILKDLIY [SMC1],2.47 ± 0.28
22,GVSISVSFNSKQNEQLH [SMC3],1.87 ± 0.064
23,GVSRQIAASAFLSLLNL [REC8],1.5 ± 0.047
24,GWDSLASRNVWSFYNGN [SNU114],2.99 ± 0.12
25,GWWGHMGGPKQKGITSY [QCR8],3.16 ± 0.072

row,Sequence,protein stability index
1,GYDKKKNKPELYQIDYL [PRE1],3.04 ± 0.086
2,GYKSTVKSLRQGKSKLI [RPL30],1.31 ± 0.08
3,GYVIKVFNNGIVVLVPK [DIS3],2.59 ± 0.092
4,HASENISLSFSRPASYG [SIR4],2.53 ± 0.064
5,HAYNITFNNQDKGLLPY [RPO31],2.64 ± 0.09
6,HDIAYSKDGLPNKVKTE [RRP6],2.74 ± 0.14
7,HDTLNNEIANSIIQSKQ [BRR2],2.76 ± 0.051
8,HECRLRDMTYSAPIYVD [RET1],2.04 ± 0.087
9,HENYIQDDDFPLDDAGT [MCD1],2.95 ± 0.054
10,HEVQYQESSSTLSTHST [SIN4],2.68 ± 0.037
11,HFAWLPTHIWNAKRSHM [POP1],1.99 ± 0.033
12,HFFQIDGFNKTFHDELN [YML103C/NUP188],1.67 ± 0.07
13,HFLQFSELAGDEELEAE [PRP8],3.33 ± 0.15
14,HFRAPSRILYKAIRGMV [RPL16B],2.19 ± 0.096
15,HGKASRQQYYSGVQVGG [SNF6],2.43 ± 0.061
16,HHWLLDKLSGCYAPRPS [RPS4A],2.21 ± 0.063
17,HHYNPKTKKLNLSAFKI [BRR2],2.21 ± 0.062
18,HIHDLEKFSPKSFISKL [SRP54],1.81 ± 0.044
19,HIHKHVKDEAFDDLLKP [RET1],3.12 ± 0.11
20,HIKEASEEVDDLSMVPK [SNF2],3.27 ± 0.11
21,HIPICVTFSFFNPQDTE [RRP45],1.56 ± 0.048
22,HIQGFPTLGERLDNLQD [DSN1],3.34 ± 0.11
23,HKKIKVAQPDSLRETNT [SIR2],3.33 ± 0.13
